Test results published in article PMC5456370, “Bacterial co-expression of human Tau protein with protein kinase A and 14-3-3 for studies of 14-3-3/phospho-Tau interaction” (PLoS ONE, 2017).

Target: the molecule itself
Experiment: native gel or EMSA; purified 14-3-3 isoforms (14 μM per monomer) without or with PKA (2 μM) in 50 mM Hepes-NaOH pH 7.3, 10 mM NaCl, 4 mM MgCl2, 60 μM ATP, 2 h at 30°C; non-denaturing 15% gel, pH 8.6; dimer and monomer regions of the gel

Protein	binding result
full-length human 14-3-3γ (natural protein, UniProt P61981 1-247, looked up, human 14-3-3 protein gamma, Uniprot P61981, full length) MVDREQLVQKARLAEQAERYDDMAAAMKNVTELNEPLSNEERNLLSVAYKNVVGARRSSWRVISSIEQKTSADGNEKKIEMVRAYREKIEKELEAVCQDVLSLLDNYLIKNCSETQYESKVFYLKMKGDYYRYLAEVATGEKRATVVESSEKAYSEAHEISKEHMQPTHPIRLGLALNYSVFYYEIQNAPEQACHLAKTAFDDAIAELDTLNEDSYKDSTLIMQLLRDNLTLWTSDQQDDDGGEGNN	binds
untagged human 14-3-3σ devoid of the C-terminal flexible peptide (residues 232-248) (domain or fragment, UniProt P31947 1-231, looked up, human 14-3-3 protein sigma, Uniprot P31947, residues 1-231 out of 248; also called 14-3-3σΔC; σΔC; source: purified (ammonium sulfate fractionation, anion-exchange and gel-filtration chromatography); also E. coli BL21(DE3), co-expressed with Tau and PKA, in lysate) MERASLIQKAKLAEQAERYEDMAAFMKGAVEKGEELSCEERNLLSVAYKNVVGGQRAAWRVLSSIEQKSNEEGSEEKGPEVREYREKVETELQGVCDTVLGLLDSHLIKEAGDAESRVFYLKMKGDYYRYLAEVATGDDKKRIIDSARSAYQEAMDISKKEMPPTNPIRLGLALNFSVFHYEIANSPEEAISLAKTTFDEAMADLHTLSEDSYKDSTLIMQLLRDNLTLWT	binds
